Source: patent publication US20180171001A1

Key:
[1] = target: Tro11 (Human immunodeficiency virus 1)
[2] = target: Env of HIV-1 strain YU2.DG (HIV-1)
[3] = target: SC4226618 (Human immunodeficiency virus 1)

Question: Which IC50 (fold change over 8ANC195 IgG), pseudovirus neutralization [panel B] [1] does the source give for “chimeric IgG: 8ANC195 HC paired with the LC from 3BNC117 (antibody)” here?
Answer: 17 fold

Question: What about the IC50 (fold change over 8ANC195 IgG), pseudovirus neutralization [panel B] [2] of the same substance?
Answer: 12 fold

Question: And the IC50 (fold change over 8ANC195 IgG), pseudovirus neutralization [panel B] [3]?
Answer: 32 fold
